# Laboratory results published in patent publication US7303752B2, “Hookworm vaccine” (The George Washington University, priority 2001, dated 2007).
# Experiments:
# CD-4+lymphocytes = test: Intracellular cytokine staining of antigen-stimulated CD4+ lymphocytes of hookworm-infected residents; type: cell-based, human; settings: CD4+ lymphocytes from whole blood of hookworm infected residents
# Procedure: The underlying immunological mechanisms accounting for this observation has been investigated. Shown in FIGS. 40 and 41, CD-4+lymphocytes were gated from the whole blood of hookworm infected residents and stimulated with either L3 soluble hookworm antigen FIG. 40) or Pichia-expressed recombinant Na-ASP-1 (FIG. 41). Host cytokine production was measured by an intracellular cytokine staining technique. […] IL-10 is a strong immunomodulator with downregulatory, anti-inflammatory properties, and IL-4 is associated with antibody production and TH-2 type immunity.
# [1] = system: antigen-specific canine IgG1 antibodies; test: ELISA of antigen-specific canine IgG1, trial with Ac-TMP, Ac-AP, Ac-APR-1; type: in vivo, dog; settings: five of the six vaccinated dogs
# Procedure: Canine Immunizations: A four-dose immunization schedule was selected (Table II). Each of the dogs was vaccinated by subcutaneous immunization at two sites in the shoulder, through a 22 gauge needle. The volume of the injections ranged between 0.5 and 1.0 ml. Four doses of each antigen were administered over a 38-day period. The first two injections (primary immunization) were administered on days 1 and 4, and the final two immunizations (boosts) were administered on days 34 and 38. Dogs in the control group were injected with an equivalent amount of alum.
# Canine antibody measurements: Blood was collected weekly by venipuncture and the serum was separated and stored frozen at −20° C. Antigen-specific canine IgG1 antibodies were measured by indirect enzyme-linked immunosorbent assay (ELISA). Other IgG subclasses were not measured due to the unavailability of suitable high-quality canine-specific reagents. The optimal concentrations of sample sera and enzyme-linked detection antibody were determined by checkerboard titrations. Optimal antigen concentrations were determined by using a saturation technique. […] The plates were incubated in the dark for 30 minutes and read at a wavelength of 405 nm on a SpectraMax 240 PC reader (Molecular Devices, Sunnyvale, Calif.) with SOFTmax Pro software (Molecular Devices, Sunnyvale, Calif.). […]
# A. caninum = test: Canine vaccine trial with Ac-TMP, Ac-AP, Ac-APR-1, oral challenge with 400 A. caninum L3; type: in vivo, dog
# Description: Study dogs and animal husbandry: Following protocol approval by The George Washington University Institutional Animal Care and Use Committee (IACUC), purpose bred, parasite naïve, male beagles 8±1 week of age were purchased, identified by ear tattoo, and maintained in the AALAC (Association for Assessment and Accreditation of Laboratory Animal Care) accredited George Washington University Animal Research Facility. The dogs were housed in a room dedicated for the study, at a room temperature of 70±4° F., with 10-15 air changes per hour comprised of 100 percent fresh air, and 12 hr light cycles alternating with 12 hr dark cycles. The airflow and timer functions were monitored daily. The dogs were fed on a diet of Teklad Certified Dog Chow #8727, supplemented with a canned soft diet in the event of anorexia. The drinking water was piped from a filter plant and delivered via automatc water system; water analysis was performed by the U.S. Army Corps of Engineers. Water from the facilities automatic system is cultured for bacteria and fungi annually. The pens were flushed daily and sanitized every two weeks. Dogs within a given study group were permitted to live together and socialize prior to the hookworm larval challenge, but were caged individually post-infection. All dogs were quarantined for approximately one week before beginning the vaccine trial. Prior to vaccination a complete blood count (CBC), serum chemistries, and a pre-vaccination serum sample were obtained.
# Vaccine study design and sample size: The vaccine trial was designed to test three different antigens, each formulated with alum, as well as an alum adjuvant control. A total of 24 dogs were randomly assigned into four groups comprised of 6 dogs each. The canine sample size was selected on the ability to detect a 40-50 percent reduction in the numbers of adult hookworms in the small intestines of the vaccinated group relative to control dogs, at a statistical power of 80 percent (alpha=0.05, two-tailed). The data were derived from the mean and standard deviation of adult hookworms previously recovered from age-matched dogs infected with 400 A. caninum L3 (Hotez et al, 2002).
# Recombinant Antigens: Each group of 6 dogs was vaccinated with recombinant hookworm proteins expressed as fusion proteins either in Escherichia coli or in an insect cell line with baculovirus. Ac-AP (Cappello et al, 1995; 1996) and Ac-TMP, were expressed in E. coli as pET 28 (Novagen) fusion proteins containing a polyhistidine tag (Cappello et al, 1996). Ac-APR-1 (Harrop et al, 1996) was expressed in a baculovirus pBacPAK6 vector (Clontech), modified to contain a polyhistidine-encoding sequence and additional restriction enzyme sites (Brindley et al, 2001). Recombinant Ac-AP and Ac-TMP fusion proteins were then purified by nickel affinity chromatography, followed by a second step of purification. In the case of Ac-AP (Cappello et al, 1995; 1996), the recombinant protein was purified by mono-S (Amersham-Pharmacia) ion exchange chromatography, while Ac-TMP (Zhan et al, 2002) was purified by superdex 75 (Amersham-Pharmacia) gel filtration chromatography. Ac-APR-1 (Harrop et al, 1996) was purified by substrate affinity chromatography using pepstatin agarose (Brindley et al, 2001). The antigen stock protein concentration was determined by Pierce Micro BCA assay (Pierce Chemicals) or by the absorbance of the sample at […] using an extinction coefficient that was calculated from the deduced amino acid composition of the fusion protein. The amount of alum adsorbed protein in each dose of antigen was measured by the Pierce Micro BCA assay using a bovine serum albumin standard. The relative purity of each of the antigens relative to contaminating E. coli or insect cell proteins was determined by analysis on sodium dodecyl sulfate polyacrylamide gel electrophoresis (SDS-PAGE). […]
# [2] = single dog with positive immune response
Molecule,host cytokine production (CD-4+lymphocytes),immunological response to the antigen [1],% Decrease of adult hookworms in the small intestines relative to alum-injected dogs (A. caninum; group) [%],% Increase of adult hookworms in the colons relative to alum-injected dogs (A. caninum; group) [%],"adult A. caninum hookworms in the colons, Median (A. caninum; group median, alum control 4)","adult hookworms in the small intestines, Median (A. caninum; group median, alum control 180)",small intestine to colon hookworm burden ratio (A. caninum; single dog with anti-Ac-AP antibody response),% Decrease of adult hookworms in the small intestine relative to alum-injected dogs (A. caninum; [2]) [%],% Increase of adult hookworms in the colon relative to alum-injected dogs (A. caninum; [2]) [%],"adult A. caninum hookworms in the colon, Mean (A. caninum; [2])","adult A. caninum hookworms in the colon, Median (A. caninum; [2])","adult hookworms in the small intestine, Mean (A. caninum; [2])","adult hookworms in the small intestine, Median (A. caninum; [2])"
"Na-ASP-1: Necator americanus secreted protein antigen, SEQ ID NO: 2; Pichia-expressed recombinant (protein, listed as Necator americanus) MFSPVVVSVVFTIAFCNASPARDSFGCSNSGITDSDRQAFLDFHNNARRRVAKGLEDSNSGKLNPAKNMYKLSWDCAMEQQLQDAIQSCPSGFAGIQGVAQNTMSWSSSGGYPDPSVKIEPTLSGWWSGAKKNGVGPDNKYTGGGLFAFSNMVYSETTKLGCAYKVCGTKLAVSCIYNGVGYITNQPMWETGQACQTGADCSTYKNSGCEDGLCTKGPDVPETNQQCPSNTGMTDSVRDTFLSVHNEFRSSVARGLEPDALGGNAPKAAKMLKMVYDCEVEASAIRHGNKCVYQHSHGEDRPGLGENIYKTSVLKFDKNKAAKQASQLWWNELKEYGVGPSNVLTTALWNRPNMQIGHYTQMAWDTTYKLGCAVVFCNDFTFGVCQYGPGGNYMGHVIYTMGQPCSQCSPGATCSVTEGLCSAP","high levels of IL-10 and IL-5, but not IL-4",–,–,–,–,–,–,–,–,–,–,–,–
"Ac-AP: A. caninum factor Xa inhibitor anticoagulant, SEQ ID NO: 54; * marks the single dog with positive immune response (protein, listed as Ancylostoma caninum) KAYPECGENEWLDDCGTQKPCEAKCNEEPPEEEDPICRSRGCLLPPACVCKDGFYRDTVIGDCVREEECDQHEIIHV",–,failed to respond immunologically,4.5,183,14,170,1.6,34.7,1083,71,71,115,115
